Source: paper PMC4927282

Biological target: caveolin-1 (Cav1) (UniProt Q03135)
Test: acceptor-photobleaching FRET, CFP/YFP pairs
Conditions: reference: Y14F-CFP/Y14F-YFP pair; sites Y14

UniProt Q03135, sequence (Q03135 whole entry, stated change not applied): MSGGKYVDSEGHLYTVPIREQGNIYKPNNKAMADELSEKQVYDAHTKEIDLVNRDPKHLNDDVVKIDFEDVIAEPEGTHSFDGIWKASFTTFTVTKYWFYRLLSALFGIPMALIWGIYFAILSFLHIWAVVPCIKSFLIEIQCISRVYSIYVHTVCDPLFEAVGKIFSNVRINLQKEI

caveolin-1 (Cav1) (from UniProt Q03135) Y14D-CFP/Y14D-YFP pair
other: FRET efficiency: weaker; reference 0.90 ± 0.13
